From US9089613B2, “Drug activation system” (BANGOR UNIVERSITY, priority 2009, dated 2015)

Assay: Enzyme reactivity to prodrugs before and after attachment to colloidal gold (UV/Vis, NADH oxidation at 340 nm, hydroxylamine formation at 420 nm)
Type: biochemical
Conditions: for Specific activity: CB1954 prodrug, excess NADH, 37° C., bound samples on 20 nm gold colloid at molar ratio 87:1 enzymes:gold; for Retained activity (%): compared to the same concentration of enzyme free in solution, CB1954, molar ratio 87:1 enzymes:gold
Description: The ability of the different nitroreductases to metabolise the selected prodrugs is assessed as the conversion of NADH to NAD^+ by UV-vis spectra. The kinetic parameters of the purified enzymes are measured by UV-vis spectra before and after their attachment to gold particles based on their ability to use NADH or an alternative cofactor such as for example nicotinic acid riboside for the reduction of the prodrugs.
For these experiments, a 300 molar equivalents of enzyme were incubated with gold colloid, as this appeared to be the minimum amount of enzyme to cover the gold nanoparticle surface as determined by UV/Vis spectrometry, electrophoresis, and stability experiments. 3.206 nmol of the NfnB and cys-NfnB enzymes in ultra pure water were incubated with 1.5 ml 20 nm Naked Gold® (7.125×10^−3 μM) at a temperature of 4° C. overnight. As controls, the same treatment was carried out for NfnB and cys-NfnB in the absence of gold colloid. The next day the solutions were divided in half and each made up to a total volume of 970 μl using ultra pure water. To each sample, 20 μl of NADH (10 mM) were added and incubated at a temperature of 37° C. for 5 min. The absorbance spectra (750 nm-200 nm) were recorded every 1.5 min for 20 min upon the addition of 10 μl CB 1954 (10 mM) or 20 μl SN 23862 (5 mM) to the test sample, and an equivalent volume of dimethyl sulfoxide (DMSO) to the reference solution. The oxidation of NADH, measured as the decrease at 340 nm, was used as an indication of reactivity of the enzyme for the substrate. The reactivity experiments were done for enzyme: gold conjugate solutions and for enzymes free in solution.
The ability of both recombinant NfnB and cys-NfnB to activate the CB1954 prodrug, before and after attachment to the gold colloid were compared. The free enzyme is known to be active as a dimer in which each monomer is closely associated with a flavin mononucleotide (FMN) molecule, and has two substrate binding pockets as explained in Lovering et al. (Lovering A. L., Hyde E. I., Searle P. F. and White S. A., in Journal of Molecular Biology, 309: 203-213, 2001) or in Zenno et al. (Zenno S, Koike H, Tanokura M and Saigo' K, in Journal of Biochemistry, 120: 736-744, 1996). […]
The formation of hydroxylamine products was monitored at 420 nm using UV/Vis spectroscopy in the presence of enzyme and excess NADH as previously described. […]
It was observed that both the NADH and CB1954 substrates were consumed in the presence of recombinant NfnB, with the simultaneous production of the hydroxylamine product. The same experiment was performed for recombinant NfnB immobilised onto the gold colloid at a molar ratio of 87:1 enzymes to gold, to ensure that any activity measured was not due to excess enzyme free in solution. […]

Retained activity (%)	Molecule	Specific activity [µmol/min/mg]
100	NfnB (unbound): his-tagged wildtype NfnB nitroreductase from Escherichia coli K12, free in solution (protein, UniProt P38489 1-217, looked up, His tag, his-tagged wildtype NfnB nitroreductase from Escherichia coli K12, free in solution) Oxygen-insensitive NAD(P)H …: MDIISVALKRHSTKAFDASKKLTPEQAEQIKTLLQYSPSSTNSQPWHFIVASTEEGKARVAKSAAGNYVFNERKMLDASHVVVFCAKTAMDDVWLKLVVDQEDADGRFATPEAKAANDKGRKFFADMHRKDLHDDAEWMAKQVYLNVGNFLLGVAALGLDAVPIEGFDAAILDAEFGLKEKGYTSLVVVPVGHHSVEDFNATLPKSRLPQNITLTEV	0.169
99.5	NfnB (bound to gold): recombinant NfnB nitroreductase immobilised onto 20 nm gold colloid (conjugate, UniProt P38489 1-217, looked up, immobilised on gold colloid, recombinant NfnB nitroreductase immobilised onto 20 nm gold colloid) Oxygen-insensitive NAD(P)H …: MDIISVALKRHSTKAFDASKKLTPEQAEQIKTLLQYSPSSTNSQPWHFIVASTEEGKARVAKSAAGNYVFNERKMLDASHVVVFCAKTAMDDVWLKLVVDQEDADGRFATPEAKAANDKGRKFFADMHRKDLHDDAEWMAKQVYLNVGNFLLGVAALGLDAVPIEGFDAAILDAEFGLKEKGYTSLVVVPVGHHSVEDFNATLPKSRLPQNITLTEV	0.168
